Assay results from patent publication US12630600B2 (MEDIMMUNE LIMITED, priority 2022, dated 2026).
Starred links: 1 amine or outer side, 2 acyl side, 3 side chain; linkers in the order of their positions; H or OH if unused. Non-standard residues stand in square brackets, D forms with d. Groups on a side chain read outwards from the residue. No end group written: not given here. *: point of attachment. C18 diacid = O=C(O)CCCCCCCCCCCCCCCCC(=O)*; γGlu = O=C(O)[C@H](CCC(=O)[*:2])N[*:1]; αMeF = C[C@](N)(Cc1ccccc1)C(=O)O; AEEA = NCCOCCOCC(=O)O; Aib = CC(C)(N)C(=O)O

B1: Peptide 148 (peptide)
peptide: H[Aib]QGTFTSDVSK[αMeF]LDSK([AEEA-AEEA-γGlu-C18 diacid])RAQDFVRWIAE[Aib]G-OH
modifications: N-terminus assumed
SMILES: CC[C@H](C)[C@H](NC(=O)[C@H](Cc1c[nH]c2ccccc12)NC(=O)[C@H](CCCNC(=N)N)NC(=O)[C@@H](NC(=O)[C@H](Cc1ccccc1)NC(=O)[C@H](CC(=O)O)NC(=O)[C@H](CCC(N)=O)NC(=O)[C@H](C)NC(=O)[C@H](CCCNC(=N)N)NC(=O)[C@H](CCCCNC(=O)COCCOCCNC(=O)COCCOCCNC(=O)CC[C@H](NC(=O)CCCCCCCCCCCCCCCCC(=O)O)C(=O)O)NC(=O)[C@H](CO)NC(=O)[C@H](CC(=O)O)NC(=O)[C@H](CC(C)C)NC(=O)[C@](C)(Cc1ccccc1)NC(=O)[C@H](CCCCN)NC(=O)[C@H](CO)NC(=O)[C@@H](NC(=O)[C@H](CC(=O)O)NC(=O)[C@H](CO)NC(=O)[C@@H](NC(=O)[C@H](Cc1ccccc1)NC(=O)[C@@H](NC(=O)CNC(=O)[C@H](CCC(N)=O)NC(=O)C(C)(C)NC(=O)[C@@H](N)Cc1c[nH]cn1)[C@@H](C)O)[C@@H](C)O)C(C)C)C(C)C)C(=O)N[C@@H](C)C(=O)N[C@@H](CCC(=O)O)C(=O)NC(C)(C)C(=O)NCC(=O)O
B2: Peptide 147 (peptide)
peptide: H[Aib]QGTFTSDVSK[αMeF]LDSK([AEEA-AEEA-γGlu-C18 diacid])RAQDFVRWLEA[Aib]G-OH
modifications: N-terminus assumed
SMILES: CC(C)C[C@H](NC(=O)[C@H](Cc1c[nH]c2ccccc12)NC(=O)[C@H](CCCNC(=N)N)NC(=O)[C@@H](NC(=O)[C@H](Cc1ccccc1)NC(=O)[C@H](CC(=O)O)NC(=O)[C@H](CCC(N)=O)NC(=O)[C@H](C)NC(=O)[C@H](CCCNC(=N)N)NC(=O)[C@H](CCCCNC(=O)COCCOCCNC(=O)COCCOCCNC(=O)CC[C@H](NC(=O)CCCCCCCCCCCCCCCCC(=O)O)C(=O)O)NC(=O)[C@H](CO)NC(=O)[C@H](CC(=O)O)NC(=O)[C@H](CC(C)C)NC(=O)[C@](C)(Cc1ccccc1)NC(=O)[C@H](CCCCN)NC(=O)[C@H](CO)NC(=O)[C@@H](NC(=O)[C@H](CC(=O)O)NC(=O)[C@H](CO)NC(=O)[C@@H](NC(=O)[C@H](Cc1ccccc1)NC(=O)[C@@H](NC(=O)CNC(=O)[C@H](CCC(N)=O)NC(=O)C(C)(C)NC(=O)[C@@H](N)Cc1c[nH]cn1)[C@@H](C)O)[C@@H](C)O)C(C)C)C(C)C)C(=O)N[C@@H](CCC(=O)O)C(=O)N[C@@H](C)C(=O)NC(C)(C)C(=O)NCC(=O)O
B3: Peptide 146 (peptide)
peptide: H[Aib]QGTFTSDVSK[αMeF]LDSK([AEEA-AEEA-γGlu-C18 diacid])RAQDFVRWLASR-OH
modifications: N-terminus assumed
SMILES: CC(C)C[C@H](NC(=O)[C@H](Cc1c[nH]c2ccccc12)NC(=O)[C@H](CCCNC(=N)N)NC(=O)[C@@H](NC(=O)[C@H](Cc1ccccc1)NC(=O)[C@H](CC(=O)O)NC(=O)[C@H](CCC(N)=O)NC(=O)[C@H](C)NC(=O)[C@H](CCCNC(=N)N)NC(=O)[C@H](CCCCNC(=O)COCCOCCNC(=O)COCCOCCNC(=O)CC[C@H](NC(=O)CCCCCCCCCCCCCCCCC(=O)O)C(=O)O)NC(=O)[C@H](CO)NC(=O)[C@H](CC(=O)O)NC(=O)[C@H](CC(C)C)NC(=O)[C@](C)(Cc1ccccc1)NC(=O)[C@H](CCCCN)NC(=O)[C@H](CO)NC(=O)[C@@H](NC(=O)[C@H](CC(=O)O)NC(=O)[C@H](CO)NC(=O)[C@@H](NC(=O)[C@H](Cc1ccccc1)NC(=O)[C@@H](NC(=O)CNC(=O)[C@H](CCC(N)=O)NC(=O)C(C)(C)NC(=O)[C@@H](N)Cc1c[nH]cn1)[C@@H](C)O)[C@@H](C)O)C(C)C)C(C)C)C(=O)N[C@@H](C)C(=O)N[C@@H](CO)C(=O)N[C@@H](CCCNC(=N)N)C(=O)O

molecular target: human GLP-1 receptor (human, UniProt P43220); experiment: cell-based or functional assay

cAMP production EC50	Binder
0.0402 nM	B1
0.0153 nM	B2
0.0246 nM	B3

molecular target: human glucagon receptor (human, UniProt P47871); experiment: cell-based or functional assay

cAMP production EC50	Binder
0.568 nM	B1
0.0435 nM	B2
1.63 nM	B3
